Measured values taken from the supplement of paper PMC11246515.
± gives the standard deviation of the averaged measurements.

Test: total protein half-life in vivo (active degradation + dilution); higher = more stable protein
[1] = E. coli NCM3722 delta-clpP delta-lon delta-hslV, growth: N-lim chemostat, doubling time 6 h
[2] = E. coli NCM3722 delta-clpP, growth: N-lim chemostat, doubling time 6 h
[3] = E. coli NCM3722 delta-hslV, growth: N-lim chemostat, doubling time 6 h
[4] = E. coli NCM3722 delta-lon, growth: N-lim chemostat, doubling time 6 h
[5] = E. coli NCM3722 delta-smpB, growth: N-lim chemostat, doubling time 6 h
[6] = wild type E. coli NCM3722, growth: C-lim chemostat, doubling time 6 h
[7] = wild type E. coli NCM3722, growth: C-lim chemostat, doubling time 12 h
[8] = wild type E. coli NCM3722, growth: N-lim chemostat, doubling time 6 h
[9] = wild type E. coli NCM3722, growth: N-lim chemostat, doubling time 12 h
[10] = wild type E. coli NCM3722, growth: P-lim chemostat, doubling time 6 h
[11] = wild type E. coli NCM3722, growth: P-lim chemostat, doubling time 12 h
[12] = wild type E. coli NCM3722, growth: C-lim chemostat, doubling time 3 h

Sequence | total protein half-life in vivo [1] | total protein half-life in vivo [2] | total protein half-life in vivo [3] | total protein half-life in vivo [4] | total protein half-life in vivo [5] | total protein half-life in vivo [6] | total protein half-life in vivo [7] | total protein half-life in vivo [8] | total protein half-life in vivo [9] | total protein half-life in vivo [10] | total protein half-life in vivo [11] | total protein half-life in vivo [12]
MKTDTPSLETPQAARLRRRQLIRQLLERDKTPLAILFMAAVVGTLVGLAAVAFDKGVAWLQNQRMGALVHTADNYPLLLTVAFLCSAVLAMFGYFLVRKYAPEAGGSGIPEIEGALEDQRPVRWWRVLPVKFFGGLGTLGGGMVLGREGPTVQIGGNIGRMVLDIFRLKGDEARHTLLATGAAAGLAAAFNAPLAGILFIIEEMRPQFRYTLISIKAVFIGVIMSTIMYRIFNHEVALIDVGKLSDAPLNTLWLYLILGIIFGIFGPIFNKWVLGMQDLLHRVHGGNITKWVLMGGAIGGLCGLLGFVAPATSGGGFNLIPIATAGNFSMGMLVFIFVARVITTLLCFSSGAPGGIFAPMLALGTVLGTAFGMVAVELFPQYHLEAGTFAIAGMGALLAASIRAPLTGIILVLEMTDNYQLILPMIITGLGATLLAQFTGGKPLYSAILARTLAKQEAEQLARSKAASASENT | 6.2 ± 0.78 h | 6.38 h | 6.54 ± 0.83 h | 6.03 h | 5.82 ± 0.66 h | 5.8 ± 0.28 h | 13.2 ± 3.7 h | 6.08 ± 0.083 h | 11.3 h | 6.1 ± 0.11 h | 11.3 ± 0.43 h | 
MSAIENFDAHTPMMQQYLRLKAQHPEILLFYRMGDFYELFYDDAKRASQLLDISLTKRGASAGEPIPMAGIPYHAVENYLAKLVNQGESVAICEQIGDPATSKGPVERKVVRIVTPGTISDEALLQERQDNLLAAIWQDSKGFGYATLDISSGRFRLSEPADRETMAAELQRTNPAELLYAEDFAEMSLIEGRRGLRRRPLWEFEIDTARQQLNLQFGTRDLVGFGVENAPRGLCAAGCLLQYAKDTQRTTLPHIRSITMEREQDSIIMDAATRRNLEITQNLAGGAENTLASVLDCTVTPMGSRMLKRWLHMPVRDTRVLLERQQTIGALQDFTAGLQPVLRQVGDLERILARLALRTARPRDLARMRHAFQQLPELRAQLETVDSAPVQALREKMGEFAELRDLLERAIIDTPPVLVRDGGVIASGYNEELDEWRALADGATDYLERLEVRERERTGLDTLKVGFNAVHGYYIQISRGQSHLAPINYMRRQTLKNAERYIIPELKEYEDKVLTSKGKALALEKQLYEELFDLLLPHLEALQQSASALAELDVLVNLAERAYTLNYTCPTFIDKPGIRITEGRHPVVEQVLNEPFIANPLNLSPQRRMLIITGPNMGGKSTYMRQTALIALMAYIGSYVPAQKVEIGPIDRIFTRVGAADDLASGRSTFMVEMTETANILHNATEYSLVLMDEIGRGTSTYDGLSLAWACAENLANKIKALTLFATHYFELTQLPEKMEGVANVHLDALEHGDTIAFMHSVQDGAASKSYGLAVAALAGVPKEVIKRARQKLRELESISPNAAATQVDGTQMSLLSVPEETSPAVEALENLDPDSLTPRQALEWIYRLKSLV | 5.91 ± 0.07 h | 5.059 ± 0.028 h | 3.51 ± 0.062 h | 3.99 ± 0.046 h | 3.329 ± 0.022 h | 4.96 ± 0.41 h | 9.15 ± 1.4 h | 3.7765 ± 0.0035 h | 5.56 ± 0.91 h | 4.78 ± 0.42 h | 7.5 ± 0.22 h | 2.84 ± 0.36 h
MLDAQTIATVKATIPLLVETGPKLTAHFYDRMFTHNPELKEIFNMSNQRNGDQREALFNAIAAYASNIENLPALLPAVEKIAQKHTSFQIKPEQYNIVGEHLLATLDEMFSPGQEVLDAWGKAYGVLANVFINREAEIYNENASKAGGWEGTRDFRIVAKTPRSALITSFELEPVDGGAVAEYRPGQYLGVWLKPEGFPHQEIRQYSLTRKPDGKGYRIAVKREEGGQVSNWLHNHANVGDVVKLVAPAGDFFMAVADDTPVTLISAGVGQTPMLAMLDTLAKAGHTAQVNWFHAAENGDVHAFADEVKELGQSLPRFTAHTWYRQPSEADRAKGQFDSEGLMDLSKLEGAFSDPTMQFYLCGPVGFMQFTAKQLVDLGVKQENIHYECFGPHKVL | 2.41 ± 0.082 h | 1.52 ± 0.25 h | 1.56 ± 0.032 h | 1.85 ± 0.057 h | 1.75 ± 0.062 h | 3.62 ± 0.29 h | 5.61 ± 0.94 h | 1.79 ± 0.19 h | 2.36 ± 0.053 h | 4.51 ± 0.079 h | 7.88 ± 1.2 h | 2.76 ± 0.13 h
MPNIVLSRIDERLIHGQVGVQWVGFAGANLVLVANDEVAEDPVQQNLMEMVLAEGIAVRFWTLQKVIDNIHRAADRQKILLVCKTPADFLTLVKGGVPVNRINVGNMHYANGKQQIAKTVSVDAGDIAAFNDLKTAGVECFVQGVPTEPAVDLFKLL |  |  |  |  |  | 5.07 ± 0.6 h | 8.17 h |  |  |  |  | 3.26 h
MIKHLVAPLVFTSLILTGCQSPQGKFTPEQVAAMQSYGFTESAGDWSLGLSDAILFAKNDYKLLPESQQQIQTMAAKLASTGLTHARMDGHTDNYGEDSYNEGLSLKRANVVADAWAMGGQIPRSNLTTQGLGKKYPIASNKTAQGRAENRRVAVVITTP | 1.39 h |  |  |  |  |  |  | 1.84 h |  | 1.9 h | 4.97 h | 0.967 h
MAVAANKRSVMTLFSGPTDIYSHQVRIVLAEKGVSFEIEHVEKDNPPQDLIDLNPNQSVPTLVDRELTLWESRIIMEYLDERFPHPPLMPVYPVARGESRLYMHRIEKDWYTLMNTIINGSASEADAARKQLREELLAIAPVFGQKPYFLSDEFSLVDCYLAPLLWRLPQLGIEFSGPGAKELKGYMTRVFERDSFLASLTEAEREMRLGRS [P0ACA3] | 5.94 ± 0.21 h | 5.92 ± 0.064 h | 5.87 ± 0.5 h | 6.44 ± 0.27 h | 5.54 ± 0.15 h | 5.9 ± 0.62 h | 10.9 ± 0.67 h | 5.8 ± 0.29 h | 11.6 ± 0.58 h | 5.85 ± 0.11 h | 13.5 ± 1.2 h | 2.919 ± 0.029 h
